# From article PMC3040440 (Journal of immunology (Baltimore, Md. : 1950), 2010)
# Biological target: hCD40-P227A, gain-of-function polymorphism of the human CD40 receptor (human, UniProt P25942 21-277, P227A)
# Test: co-IP
# Chain of hCD40-P227A, gain-of-function polymorphism of the human CD40 receptor (P25942 21-277 P227A): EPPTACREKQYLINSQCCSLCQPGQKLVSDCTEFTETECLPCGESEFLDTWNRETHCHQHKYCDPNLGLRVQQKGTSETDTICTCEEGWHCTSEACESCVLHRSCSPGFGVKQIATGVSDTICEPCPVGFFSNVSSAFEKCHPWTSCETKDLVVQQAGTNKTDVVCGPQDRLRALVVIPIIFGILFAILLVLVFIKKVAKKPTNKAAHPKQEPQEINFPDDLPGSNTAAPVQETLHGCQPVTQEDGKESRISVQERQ
row,fold bound relative to Wt-hCD40,Binder
1,2 fold,"TNF receptor associated factor 3 (TRAF3) (natural protein, mouse (endogenous in CH12.LX), UniProt Q60803 1-567, looked up) MESSKKMDAAGTLQPNPPLKLQPDRGAGSVLVPEQGGYKEKFVKTVEDKYKCEKCRLVLCNPKQTECGHRFCESCMAALLSSSSPKCTACQESIIKDKVFKDNCCKREILALQVYCRNEGRGCAEQLTLGHLLVHLKNECQFEELPCLRADCKEKVLRKDLRDHVEKACKYREATCSHCKSQVPMIKLQKHEDTDCPCVVVSCPHKCSVQTLLRSELSAHLSECVNAPSTCSFKRYGCVFQGTNQQIKAHEASSAVQHVNLLKEWSNSLEKKVSLLQNESVEKNKSIQSLHNQICSFEIEIERQKEMLRNNESKILHLQRVIDSQAEKLKELDKEIRPFRQNWEEADSMKSSVESLQNRVTELESVDKSAGQAARNTGLLESQLSRHDQMLSVHDIRLADMDLRFQVLETASYNGVLIWKIRDYKRRKQEAVMGKTLSLYSQPFYTGYFGYKMCARVYLNGDGMGKGTHLSLFFVIMRGEYDALLPWPFKQKVTLMLMDQGSSRRHLGDAFKPDPNSSSFKKPTGEMNIASGCPVFVAQTVLENGTYIKDDTIFIKVIVDTSDLPDP"
2,2 fold,"TNF receptor associated factor 5 (TRAF5) (natural protein, mouse (endogenous in CH12.LX), UniProt P70191 1-558, looked up) MAHSEEQAAVPCAFIRQNSGNSISLDFEPDTEYQFVEQLEERYKCAFCHSVLHNPHQTGCGHRFCQQCIRSLRELNSVPICPVDKEVIKPQEVFKDNCCKREVLNLHVYCKNAPGCNARIILGRFQDHLQHCSFQAVPCPNESCREAMLRKDVKEHLSAYCRFREEKCLYCKRDIVVTNLQDHEENSCPAYPVSCPNRCVQTIPRARVNEHLTVCPEAEQDCPFKHYGCTVKGKRGNLLEHERAALQDHMLLVLEKNYQLEQRISDLYQSLEQKESKIQQLAETVKKFEKELKQFTQMFGRNGTFLSNVQALTSHTDKSAWLEAQVRQLLQIVNQQPSRLDLRSLVDAVDSVKQRITQLEASDQRLVLLEGETSKHDAHINIHKAQLNKNEERFKQLEGACYSGKLIWKVTDYRVKKREAVEGHTVSVFSQPFYTSRCGYRLCARAYLNGDGSGKGTHLSLYFVVMRGEFDSLLQWPFRQRVTLMLLDQSGKKNHIVETFKADPNSSSFKRPDGEMNIASGCPRFVSHSTLENSKNTYIKDDTLFLKVAVDLTDLEDL"
